Assays:
[1] = tested on: endogenous PKCθ; assay: IS localization in OT-II CD4+ T cells conjugated with Ova-loaded APCs (confocal); assay type: cell-based, mouse; conditions: OT-II TCR-Tg CD4+ T cells
Procedure: (FIG. 6A) OT-II CD4^+ T cells were infected with retrovirus expressing Myc-tagged V3 domain, V3 mutated at P330/1/4/6A (V3-4PA), or PR motif-deleted V3 (V3-ΔPR). Infected cells (green) were harvested, stimulated, and fixed. Conjugates were stained with anti-Myc plus a secondary Alexa 555-coupled antibody (orange), and anti-PKCθ plus a secondary Alexa 647-coupled antibody (red). Cells were analyzed as in FIG. 1A. (FIG. 6B) Quantitative analysis of the results shown in (FIG. 6A) from 30-50 T-APC conjugates. ** p<0.05. (FIG. 6C) MCC-specific T hybridoma cells were cotransfected with indicated vector, together with RE/AP-Luc and β-Gal reporter plasmids. Cells were stimulated and analyzed as in FIG. 1C. (FIG. 6D) Naïve CD4^+ T cells from B6 mice stimulated with anti-CD3 plus anti-CD28 mAbs and differentiated in vitro under Th1-, Th2- or Th17-polarizing conditions were retrovirally transduced with empty pMIG vector, or with the indicated PKCθ V3 vectors. Cytokine-producing cells were analyzed by intracellular staining 8 h after restimulation. Right panels represent cumulative data showing percentage of cytokine-producing cells by intracellular staining. (FIG. 6E) MCC-specific T hybridoma cells were cotransfected with the indicated plasmids, together with NFAT luciferase reporter and a β-Gal reporter plasmid. Cells were incubated with fibroblasts that express I-E^K and B7-1 in the absence or presence of MCC peptide for 6 hrs. Normalized luciferase activity was determined in triplicates.
Full-length human PKCθ and its derivatives were cloned as a GFP fusion protein in the pMX retroviral vector. Retroviral supernatants were used to infect preactivated CD4^+ T cells from PKCθ^−/− or WT OT-II mice. Transduced cells were rested for an additional three days. On the day of experiment, APC were prepared from WT B6 splenocytes that were depleted of CD4^+ T cells using anti-CD4 (L3T4) mAb-coated beads. T-depleted APC were stained with 20 μM of cell tracker blue (CMAC) and then pulsed with 5 μM Ova peptide, respectively, for 30 min at 37° C. T cell-APC conjugation was carried out at 37° C. for 20 min before fixation with 4% paraformaldehyde and permeabilization with PBS supplemented with 1% BSA and 0.1% Triton X-100. […] Immunofluorescene images were captured using a Marianas digital fluorescence-microscopy system (Intelligent Imaging Innovations) as described (Becart, S. et al. Immunity 29, 704-719 (2008)).
Given the critical role of the PKCθ V3 domain in the enzyme's CD28 association, IS localization, and activation of downstream targets, ectopic expression of the isolated V3 domain was analyzed for interference with the localization and function of PKCθ in stimulated T cells. […]

[2] = tested on: Th2-mediated lung inflammation; assay: Th2-mediated Ova-induced airway inflammation after adoptive transfer of transduced OT-II Th2 cells; assay type: in vivo, mouse; conditions: transferred Th2 cells, aerosolized Ova 3 consecutive days
Excerpt: (FIG. 7A-7D) OT-II CD4^+ T cells stimulated with anti-CD3 plus anti-CD28 mAbs and differentiated in vitro under Th2 (FIG. 7A-7C) or Th1 (FIG. 7D, 7E)-polarizing conditions were retrovitrally transduced with the same PKCθ V3 vectors as in FIG. 6. Sorted GFP^+ populations were adoptively transferred into naïve B6 mice, which were challenged with aerosolized Ova for 3 consecutive days. BAL fluid were obtained 1 d post-challenge and analyzed for total mononuclear cell infiltration (FIG. 7A, 7D) and cytokine expression using IL-4 (FIG. 7B), IL-5 (FIG. 7C) and IFN-γ (FIG. 7E) ELISA.
CD4^+ T cells from OT-II B6 mice were isolated and cultured with plate-bound anti-CD3 (5 μg/ml), soluble anti-CD28 (2.5 μg/ml) and IL-2 (100 U/ml) under Th1 or Th2 polarizing conditions. The cells were retrovirally infected on days 2-4 and cultured for an additional 3 days. GFP^+ cells were sorted, and 1×10^6 cells were injected intravenously into naïve WT B6 mice. One day later, mice received aerosolized Ova (5 mg/ml in 20 ml PBS) for 30 min, once a day for 3 consecutive days, using ultrasonic nebulization. Mice were sacrificed 24 h after the last challenge and assessed for lung inflammation. Collection of BAL fluid and determination of cytokine levels were carried out as described (Salek-Ardakani, S. et al. J Immunol 173, 6440-6447 (2004)).
The above findings were extended to an in vivo antigen-specific inflammatory response in an airway inflammation model, using a T cell adoptive transfer system. Mice receiving OT-II Th2 cells transduced with an empty vector developed an inflammatory response by comparison with PBS-challenged control mice, as evidenced by a significant increase in the number of infiltrating leukocytes in the bronchoalveolar lavages (BAL) fluid (FIG. 7a) and in the levels of signature Th2 cytokines, IL-4 (FIG. 7b) and IL-5 (FIG. 7c).

[3] = tested on: Naïve CD4+ T cells from B6 mice, Treg (FoxP3+) cells; assay: In vitro Treg (FoxP3+) differentiation of retrovirally transduced CD4+ T cells; assay type: cell-based, mouse; conditions: Treg-polarizing conditions (IL-2+TGFβ), GFP+FoxP3+ cells
Procedure: (§1) Naïve CD4+ T cells from B6 mice stimulated with anti-CD3 plus anti-CD28 mAbs and differentiated in vitro under Treg-polarizing conditions (IL-2+TGFβ) were retrovirally transduced with empty pMIG vector, or with the indicated PKCθ V3 vectors. Transduced (GFP+) cells were sorted and FoxP3+ cells were analyzed by intracellular staining.
as §1, with “CD4^+” for “CD4+”, “(GFP+)” for “(GFP+) cells were sorted and”, “intracellular staining 8 hours after restimulation. Right panels represent cumulative data showing percentage of GFP+FoxP3+ cells by intracellular” for “intracellular”

B1: V3-4PA: V3 mutated at P330/1/4/6A (4 Pro residues in the Pro-rich motif to Ala) (protein)
chain: MSPFLRIGLSNFDCGSCQSCQGEAVNPYCAVLVKEYVESENGQMYIQKKPTMYPPWDSTFDAHINKGRVMQIIVKGKNVDLISETTVELYSLAERCRKNNGKTEIWLELKPQGRMLMNARYFLEMSDTKDMNEFETEGFFALHQRRGAIKQAKVHHVKCHEFTATFFPQPTFCSVCHEFVWGLNKQGYQCRQCNAAIHKKCIDKVIAKCTGSAINSRETMFHKERFKIDMPHRFKVYNYKSPTFCEHCGTLLWGLARQGLKCDACGMNVHHRCQTKVANLCGINQKLMAEALAMIESTQQARCLRDTEQIFREGPVEIGLPCSIKNEARAACLATAGKREPQGISWESPLDEVDKMCHLPEPELNKERPSLQIKLKIEDFILHKMLGKGSFGKVFLAEFKKTNQFFAIKALKKDVVLMDDDVECTMVEKRVLSLAWEHPFLTHMFCTFQTKENLFFVMEYLNGGDLMYHIQSCHKFDLSRATFYAAEIILGLQFLHSKGIVYRDLKLDNILLDKDGHIKIADFGMCKENMLGDAKTNTFCGTPDYIAPEILLGQKYNHSVDWWSFGVLLYEMLIGQSPFHGQDEEELFHSIRMDNPFYPRWLEKEAKDLLVKLFVREPEKRLGVRGDIRQHPLFREINWEELERKEIDPPFRPKVKSPFDCSNFDKEFLNEKPRLSFADRALINSMDQNMFRNFSFMNPGMERLIS
- effect on IS localization of endogenous PKCθ [1]: did not interfere with the IS localization of endogenous PKCθ
- subcellular localization of the transduced V3 protein [1]: did not localize anymore in the IS
- inhibition of the Th2 inflammatory response [2]: partially rescued the inhibition
- promotion of Treg differentiation [3]: not
